Laboratory results reported in patent publication US20250382379A1 (VISTERRA, published 2025).

T1: extracellular domain of soluble human CD138 (amino acids 18-251 of SEQ ID NO 1), biotinylated recombinant (human, UniProt P18827 18-251, biotinylated (site not stated))
T1 construct: also called CD138 extracellular domain; soluble extracellular domain of human CD138
T1 sequence: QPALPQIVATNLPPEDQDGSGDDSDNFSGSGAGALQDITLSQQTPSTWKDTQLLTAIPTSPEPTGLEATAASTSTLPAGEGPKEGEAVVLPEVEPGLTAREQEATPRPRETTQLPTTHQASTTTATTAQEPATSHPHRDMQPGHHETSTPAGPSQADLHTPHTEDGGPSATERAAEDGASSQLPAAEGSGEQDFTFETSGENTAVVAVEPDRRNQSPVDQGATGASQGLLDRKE

T2: human CD138 derived peptide 2A (integrin binding domain), biotinylated (human, biotinylated (site not stated))
T2 construct: also called Pep2a
T2 peptide: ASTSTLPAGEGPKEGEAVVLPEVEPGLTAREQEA

T3: human CD138 derived peptide 6A (membrane proximal region), biotinylated (human, biotinylated (site not stated))
T3 construct: also called Pep6a
T3 peptide: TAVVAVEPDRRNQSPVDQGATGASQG

T4: human CD138 (syndecan-1), membrane-bound on CD138+ multiple myeloma cell lines (human, UniProt P18827 23-310)
T4 construct: whole, on cells; also called membrane CD138; cell surface CD138
T4 sequence (looked up): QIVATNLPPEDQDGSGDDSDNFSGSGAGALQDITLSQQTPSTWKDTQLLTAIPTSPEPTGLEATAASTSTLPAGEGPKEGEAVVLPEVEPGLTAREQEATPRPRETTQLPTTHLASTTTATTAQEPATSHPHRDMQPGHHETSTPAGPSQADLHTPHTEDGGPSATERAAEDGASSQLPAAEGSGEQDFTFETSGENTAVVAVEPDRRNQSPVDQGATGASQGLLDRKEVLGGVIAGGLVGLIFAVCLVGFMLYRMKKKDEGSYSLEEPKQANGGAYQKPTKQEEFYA


Key:
[1] = biological target: T1, extracellular domain of soluble human …; test: antigen capture ELISA, antibody coated, biotinylated CD138 extracellular domain, reference BB4
Procedure: (§1) 1 or select human CD138 derived peptides (Table 3) was evaluated by antigen capture ELISA. […] The immobilized monoclonal antibodies were tested for binding to biotinylated recombinant CD138 extracellular domain or peptides 2A, peptide 6A in 5-fold serial antigen dilutions starting at starting at a 50 nM concentration. HRP-conjugated Anti-biotin secondary antibody (1:10000 dilution) was used for detection.

[2] = biological target: T2, human CD138 derived peptide 2A …; test: antigen capture ELISA, antibody coated, biotinylated peptide titrated from 50 nM
Procedure: as §1

[3] = biological target: T3, human CD138 derived peptide 6A …; test: as above
Procedure: as §1

[4] = biological target: T4, human CD138 (syndecan-1), …; test: flow cytometry on U266 cells, maximal MFI, reference BB4
Procedure: The antibodies were then serially diluted three-fold. Antibody binding to membrane CD138 was evaluated using the CD138+ human lymphoblastic myeloma cell line U266 and quantified by flow cytometry. Antibody cell binding was reported as geometric mean fluorescence intensity (MFI). Binding data were plotted using nonlinear regression analysis and a 4-parameter curve fit.
Antibody cell binding was reported as geometric mean fluorescence intensity (MFI). Binding data were plotted using nonlinear regression analysis and a 4-parameter curve fit.

[5] = biological target: T4, human CD138 (syndecan-1), …; test: flow cytometry on U266 cells, geometric MFI
[6] = biological target: T4, human CD138 (syndecan-1), …; test: flow cytometry on MM1.S, LP-1 and RPMI 8226 cells

Binder	binding result [6]	further results
humanized anti-CD138 antibody mAb 4320 (antibody, human IgG1, kappa, V domains shown, Produced with 2FF in the medium to reduce core fucose of the N297 glycan) VH: QVQLVQSGAEVKKPGASVKVSCKASGYSFSSYYMHWVRQAPGQGLEWMGTIHPSDSTTNYNQKFQGRVTMTVDTSTRTAYMELSSLRSEDTAVYYCANFVYWGQGTTVTVSS VL: DIVMTQTPLSLSVTPGQPASISCKSSKSLLYKDGKTYLNWFLQKPGQSPQLLIYVVSTRASGVPDRFSGSGSGTDFTLKISRVEAEDVGVYYCQQLVEYPYTFGQGTKLEIKR		fold higher binding affinity in comparison to BB4 [1]: ~6 fold; binding result [2]: binds; binding result [3]: binds; total cell surface binding (maximal MFI) relative to antibody BB4 [4]: ~25 % greater than BB4
mouse chimeric anti-CD138 antibody 2810 (antibody, V domains shown, Described as a mouse-human chimeric antibody; also called mAb2810) VH: QVQLHQPGTSLVKPGASVKLSCKASGYSFSSYYMHWVKQRPGQGLEWIGTIHPSDSTTNYNQKFKGKATLTVDKSSRTAYMQLNSLTFEDSAVYYCANFVYWGQGTSVTVSS VL: DIVITQDELSNPVTSGDSVSISCRSSKSLLYKDGKTYLNWFLQRPGQSPQLLIYVVSTRASGVSDRFSGSGSGTDFTLEISRVKAEDVGVYYCQQLVEYPYTFGGGTKLEIK		binding result [5]: binds
humanized anti-CD138 antibody variant 3821 (antibody, human IgG1, V domains shown, also called mAb 3821) VH: QVQLVQSGAEVKKPGSSVKVSCKASGYSFSSYYMHWVRQAPGQGLEWMGTIHPSDSTANYNQKFKGRVTITVDKSTSTAYMELSSLRSEDTAVYYCANFVYWGQGTTVTVSS VL: DIVMTQTPLSLSVTPGQPASISCKSSKSLLYKDGKTYLNWFLQKPGQSPQLLIYVVSTRASGVPDRFSGSGSGTDFTLKISRVEAEDVGVYYCQQLVQYPYTFGQGTKLEIK	binds	
humanized anti-CD138 antibody variant 3820 (antibody, human IgG1, V domains shown, also called mAb 3820) VH: QVQLVQSGAEVKKPGSSVKVSCKASGYSFSSYYMHWVRQAPGQGLEWMGTIHPSDSTANYNQKFKGRVTITVDKSTSTAYMELSSLRSEDTAVYYCANFVYWGQGTTVTVSS VL: DIVMTQTPLSLSVTPGQPASISCKSSKSLLYKDGKTYLNWFLQKPGQSPQLLIYVVSTRASGVPDRFSGSGSGTDFTLKISRVEAEDVGVYYCQQLVEYPYTFGQGTKLEIK	binds	
humanized anti-CD138 antibody variant 4321 (antibody, human IgG1, V domains shown, also called mAb 4321) VH: QVQLVQSGAEVKKPGASVKVSCKASGYSFSSYYMHWVRQAPGQGLEWMGTIHPSDSTTNYNQKFQGRVTMTVDTSTRTAYMELSSLRSEDTAVYYCANFVYWGQGTTVTVSS VL: DIVMTQTPLSLSVTPGQPASISCKSSKSLLYKDGKTYLNWFLQKPGQSPQLLIYVVSTRASGVPDRFSGSGSGTDFTLKISRVEAEDVGVYYCQQLVQYPYTFGQGTKLEIK	binds	
humanized anti-CD138 antibody variant 4521 (antibody, human IgG1, V domains shown, also called mAb 4521) VH: QVQLVQSGAEVKKPGASVKVSCKASGYNFASYYMHWVRQAPGQGLEWMGTIHPSDSTTNYNQKFKGRVTMTVDTSTSTAYMELSSLRSEDTAVYYCANFVYWGQGTTVTVSS VL: DIVMTQTPLSLSVTPGQPASISCKSSKSLLYKDGKTYLNWFLQKPGQSPQLLIYVVSTRASGVPDRFSGSGSGTDFTLKISRVEAEDVGVYYCQQLVQYPYTFGQGTKLEIK	binds	
humanized anti-CD138 antibody variant 4326 (antibody, human IgG1, V domains shown, also called mAb 4326) VH: QVQLVQSGAEVKKPGASVKVSCKASGYSFSSYYMHWVRQAPGQGLEWMGTIHPSDSTTNYNQKFQGRVTMTVDTSTRTAYMELSSLRSEDTAVYYCANFVYWGQGTTVTVSS VL: DIVMTQSPDSLAVSLGERATINCKSSQSLLYKDGKTYLNWFQQKPGQPPKLLIYVVSTRASGVPDRFSGSGSGTDFTLTISSLQAEDVAVYYCQQLVEYPYTFGQGTKLEIK	binds	
